Results: US20060147922

Test system: chk2, endogenous (HEK 293 and MCF-7 cell extracts)
Sequence (chain, as listed by the source): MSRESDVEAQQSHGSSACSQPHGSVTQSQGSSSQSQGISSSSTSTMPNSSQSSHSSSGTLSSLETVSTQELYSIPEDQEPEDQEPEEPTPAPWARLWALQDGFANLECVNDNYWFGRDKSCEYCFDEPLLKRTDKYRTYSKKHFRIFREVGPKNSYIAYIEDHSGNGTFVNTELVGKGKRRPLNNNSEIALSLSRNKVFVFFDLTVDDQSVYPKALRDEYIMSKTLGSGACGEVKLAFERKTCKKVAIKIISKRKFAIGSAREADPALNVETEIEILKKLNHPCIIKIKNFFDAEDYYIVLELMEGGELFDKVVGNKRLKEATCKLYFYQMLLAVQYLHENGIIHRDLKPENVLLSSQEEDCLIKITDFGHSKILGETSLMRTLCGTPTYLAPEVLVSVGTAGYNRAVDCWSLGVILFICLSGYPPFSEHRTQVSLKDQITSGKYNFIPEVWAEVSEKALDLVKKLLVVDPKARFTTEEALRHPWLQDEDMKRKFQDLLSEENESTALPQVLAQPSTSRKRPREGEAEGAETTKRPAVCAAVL

EDD protein, full length (aa 1-2799)
CHK2 kinase activity towards a GST-cdc25C substrate post-IR in the presence and absence of EDD: activation of CHK2 was delayed in cells lacking EDD and these cells were impaired in their ability to reach maximal CHK2 kinase activity
DNA damage-induced phosphorylation of CHK2 on T68 after EDD depletion by RNA interference: considerably diminished compared to control cells
